Measurements taken from paper PMC3949604 (Biochemical pharmacology, 2014).

Molecular target: baculovirus expressed human Arnt (aryl hydrocarbon receptor nuclear translocator) (human, UniProt P27540 1-789)
Assay: co-IP

Sequence of baculovirus expressed human Arnt (aryl hydrocarbon receptor nuclear translocator) (P27540 whole entry): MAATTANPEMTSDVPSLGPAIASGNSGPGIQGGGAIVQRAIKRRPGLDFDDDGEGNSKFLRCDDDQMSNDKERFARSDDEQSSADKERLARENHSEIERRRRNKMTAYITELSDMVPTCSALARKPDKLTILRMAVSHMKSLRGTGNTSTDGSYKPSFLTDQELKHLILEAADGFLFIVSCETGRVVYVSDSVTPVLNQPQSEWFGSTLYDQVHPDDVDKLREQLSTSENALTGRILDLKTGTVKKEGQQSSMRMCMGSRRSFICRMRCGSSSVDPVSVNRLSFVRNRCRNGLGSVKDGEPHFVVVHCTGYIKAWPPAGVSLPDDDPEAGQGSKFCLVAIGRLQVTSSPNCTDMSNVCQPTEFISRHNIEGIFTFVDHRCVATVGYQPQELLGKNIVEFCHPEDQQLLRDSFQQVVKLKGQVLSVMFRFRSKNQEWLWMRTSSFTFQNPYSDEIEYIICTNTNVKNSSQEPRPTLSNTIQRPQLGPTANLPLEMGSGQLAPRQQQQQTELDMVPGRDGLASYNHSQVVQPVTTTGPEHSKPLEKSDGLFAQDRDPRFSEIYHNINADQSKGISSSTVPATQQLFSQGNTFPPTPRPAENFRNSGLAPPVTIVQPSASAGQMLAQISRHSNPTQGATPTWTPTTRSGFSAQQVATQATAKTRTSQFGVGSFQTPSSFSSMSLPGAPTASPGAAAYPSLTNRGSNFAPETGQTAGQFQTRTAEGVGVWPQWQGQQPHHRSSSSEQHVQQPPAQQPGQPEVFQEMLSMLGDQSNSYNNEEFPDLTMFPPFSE

Binder | percent of input co-immunoprecipitated
thioredoxin fusion of D1 (human AhR aa 84-295) (domain or fragment, UniProt P35869 84-295, looked up) DVALKSSPTERNGGQDNCRAANFREGLNLQEGEFLLQALNGFVLVVTTDALVFYASSTIQDYLGFQQSDVIHQSVYELIHTEDRAEFQRQLHWALNPSQCTESGQGIEEATGLPQTVVCYNPDQIPPENSPLMERCFICRLRCLLDNSSGFLAMNFQGKLKYLHGQKKKGKDGSILPPQLALFAIATPLQPPSILEIRTKNFIFRTKHKLDF | ~10 % input
thioredoxin fusion of D2 (human AhR aa 84-192) (domain or fragment) not shown | ~10 % input
thioredoxin fusion of D3 (human AhR aa 191-295) (domain or fragment, UniProt P35869 191-295, looked up) EEATGLPQTVVCYNPDQIPPENSPLMERCFICRLRCLLDNSSGFLAMNFQGKLKYLHGQKKKGKDGSILPPQLALFAIATPLQPPSILEIRTKNFIFRTKHKLDF | ~10 % input
thioredoxin fusion of CΔ553 (human AhR aa 1-295) (domain or fragment, UniProt P35869 1-295, looked up) MNSSSANITYASRKRRKPVQKTVKPIPAEGIKSNPSKRHRDRLNTELDRLASLLPFPQDVINKLDKLSVLRLSVSYLRAKSFFDVALKSSPTERNGGQDNCRAANFREGLNLQEGEFLLQALNGFVLVVTTDALVFYASSTIQDYLGFQQSDVIHQSVYELIHTEDRAEFQRQLHWALNPSQCTESGQGIEEATGLPQTVVCYNPDQIPPENSPLMERCFICRLRCLLDNSSGFLAMNFQGKLKYLHGQKKKGKDGSILPPQLALFAIATPLQPPSILEIRTKNFIFRTKHKLDF | > 10 % input
